± gives the standard deviation of the averaged measurements.
Tested on: ATP
Assay: switch fluorescence ratio, 500 uM ATP over buffer (Cy3 cluster intensity, sum of 5 cycles each) (fold (ratio)); higher = stronger signal-on switching upon ATP binding; sequences stand for … in TCGTCGGCAGCGTCAGATGTGTATAAGAGACAGTTTTTTTTTTTTTTTTTTTTTTTTT…TC
Settings: aptamer strand: ATP DNA aptamer (quencher-CACCTGGGGGAGTATTGCGGAGGAAGG + anchor), 100 nM annealed; ATP concentration: 500 uM
Procedure, shortened: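 Clusters carrying Cy3-labelled switching strands on a modified Illumina MiSeq flow-cell were annealed to 100 nM quencher-labelled ATP aptamer and imaged in selection buffer. They were imaged again after 15 min with 500 uM ATP at 22 °C, over five buffer/ATP cycles with NaOH stripping and re-annealing in between. For each cluster, the fluorescence ratio is the summed Cy3 intensity of the target cycles divided by that of the buffer cycles, averaged per switch-domain sequence. Clusters outside 100-1000 RFU were left out.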
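Note: ATP exposure 15 min at 22 °C before imaging.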

Row | Sequence | switch fluorescence ratio
1 | CTCGTACTTA | 1 ± 0.019
2 | ATTTGAGTTT | 1.01 ± 0.038
3 | AGGGATTAGC | 0.988 ± 0.015
4 | GAACGTGGGT | 0.987 ± 0.052
5 | AGAAGTCGCG | 0.9551 ± 0.0013
6 | TGCAATTCGT | 1.13 ± 0.033
7 | CGGTGTGGCT | 0.97 ± 0.016
8 | CGGCGATGGG | 1.11 ± 0.069
9 | CGGTTGAGGT | 0.999 ± 0.047
10 | ATTGTGGTCC | 1.007 ± 0.0082
11 | GGTTTATAAA | 0.971 ± 0.051
12 | TTAGATTTTA | 0.961 ± 0.034
13 | AGTAGCTCGG | 1.009 ± 0.0092
14 | ACAGACAGGC | 1.05 ± 0.062
15 | TGGGAGTGGG | 0.983 ± 0.019
16 | TAAATCCTTT | 1 ± 0.053
17 | GTATTTGAGT | 0.991 ± 0.0031
18 | CGGGATTTAG | 1 ± 0.014
19 | GGGGGTTGGC | 0.966 ± 0.047
20 | GGGGGGTTGA | 1.1 ± 0.2
21 | GACGTTGCTA | 1.06 ± 0.019
22 | GCTGGTCATG | 0.989 ± 0.018
23 | ATGGATAT | 0.98 ± 0.031
24 | TTTTGAAGTC | 1.03 ± 0.092
25 | TCTTGGTTGA | 0.968 ± 0.02

Row | Sequence | switch fluorescence ratio
26 | AGGAAGGGGA | 0.9683 ± 0.0089
27 | GTTAGATTGT | 0.9731 ± 0.0039
28 | GGGGAAGGAT | 1.05 ± 0.13
29 | GGTGCTTTTG | 0.9888 ± 0.0085
30 | TGCCAAGGTT | 1.02 ± 0.034
31 | AACCTGGGGC | 1.15 ± 0.044
32 | TAGCCTTTGG | 0.978 ± 0.034
33 | CGGCTTTCCC | 1.01 ± 0.028
34 | GCTTTTTTGA | 0.993 ± 0.042
35 | TTAGGCTAAA | 1.002 ± 0.0074
36 | AAGTGGGCGT | 1.01 ± 0.046
37 | GGTCTGGTGC | 1.031 ± 0.0048
38 | CTTTGCTTTT | 0.968 ± 0.023
39 | CTGGAATAGC | 2.21 ± 0.3
40 | TTTGTCCCTT | 1.01 ± 0.041
41 | TTGGGATCCG | 0.985 ± 0.016
42 | GTAAGTTCTG | 1 ± 0.011
43 | GCAAAAGGAA | 0.975 ± 0.022
44 | ACAATGTGGT | 0.951 ± 0.018
45 | TATTAGGTA | 1.01 ± 0.017
46 | TGATTTTTGT | 0.997 ± 0.021
47 | TTTCCCGGTG | 2.13 ± 0.039
48 | CCTTTCATGC | 1.65 ± 0.16
49 | TTCTACTAGT | 0.98 ± 0.024
50 | CATTGAAAGA | 1.01 ± 0.038

Row | Sequence | switch fluorescence ratio
51 | ACTTCACATA | 1.35 ± 0.042
52 | TCTTTCTGGG | 1.03 ± 0.021
53 | TTTGAAAGCT | 1.164 ± 0.0067
54 | TTTAAAGCGC | 1.02 ± 0.043
55 | TTTAGAGAGT | 1.01 ± 0.018
56 | TTTCGGCCAG | 1.13 ± 0.17
57 | ATATAGACGG | 0.975 ± 0.024
58 | AAGGAATAGC | 1.044 ± 0.002
59 | CGGCTTGGTG | 0.996 ± 0.048
60 | TTCTTAGGGA | 0.9863 ± 0.0054
61 | CGGGGTTATT | 0.989 ± 0.014
62 | CATGTGGGGG | 0.985 ± 0.027
63 | TGGTTTGATT | 1.003 ± 0.0064
64 | TATTTAGGAA | 0.9498 ± 0.0078
65 | AGCTGTCGCT | 1.01 ± 0.076
66 | CGAATTAAAC | 0.99 ± 0.029
67 | CAGGGAAGGT | 1.01 ± 0.033
68 | AACATGGGTT | 1.01 ± 0.031
69 | ATCAGTGAGA | 1.03 ± 0.032
70 | CAGGCATGGT | 0.9891 ± 0.002
71 | CATCGGCCGC | 1.0223 ± 0.00032
72 | TAAAATAGGG | 1.01 ± 0.018
73 | CCAAAGATAT | 1.09 ± 0.03
74 | GGTTTCTTAG | 0.98 ± 0.018
75 | AGGTTGGGT | 0.973 ± 0.025

Row | Sequence | switch fluorescence ratio
76 | TACGGTTACT | 1.27 ± 0.014
77 | TGGGGGACTC | 0.988 ± 0.023
78 | TGGCGGGGGA | 1.05 ± 0.042
79 | GCATTGGTAC | 1.17 ± 0.071
80 | GTTGTAATCA | 0.98 ± 0.024
81 | TAAAGATGG | 0.995 ± 0.027
82 | CGTGATGGTT | 0.983 ± 0.014
83 | TTGGTGATGT | 0.994 ± 0.044
84 | CATTTCAGGT | 1.03 ± 0.069
85 | AGGTAGGTGG | 1.01 ± 0.019
86 | TGTGGGGGTG | 1.01 ± 0.033
87 | GGGGTCCTAA | 0.986 ± 0.011
88 | TGAACTTGAG | 1.01 ± 0.0062
89 | TGAGCGGTTG | 1 ± 0.018
90 | GGCGAAAGAG | 1.02 ± 0.049
91 | AGGTTTGTGT | 1.01 ± 0.024
92 | AGAGTCACGG | 0.982 ± 0.024
93 | GGTTAATTGT | 0.993 ± 0.033
94 | ACAGGACAGC | 1.14 ± 0.049
95 | GGATCATCGC | 1.027 ± 0.0065
96 | TTAGGTGAGG | 0.993 ± 0.026
97 | GATTATCATT | 0.9669 ± 0.0093
98 | AATAGGTTAG | 1.001 ± 0.0075
99 | TAAATACTCG | 1.25 ± 0.044
100 | AGTACCGTTT | 0.968 ± 0.027

Row | Sequence | switch fluorescence ratio
101 | GCTCGTTAAA | 1.04 ± 0.1
102 | CAGGAAAATG | 0.994 ± 0.041
103 | ACTTTAATGA | 1.07 ± 0.018
104 | TGAAAACGGG | 1.022 ± 0.0095
105 | TACGGGCATA | 1.1 ± 0.049
106 | TATTCATGGT | 1.025 ± 0.0057
107 | TTAACATACG | 1.38 ± 0.042
108 | CTGTGGCTCG | 0.9986 ± 0.0057
109 | ACAAGATACA | 1.03 ± 0.021
110 | GCTCGTACGT | 1.01 ± 0.031
111 | GTATGGGATG | 0.993 ± 0.015
112 | TGTAAGGTTT | 1.01 ± 0.024
113 | CAATAGAAGT | 0.979 ± 0.037
114 | TAAAAGTCGG | 1.01 ± 0.019
115 | AAGAGGGGAA | 0.988 ± 0.062
116 | CCTCCAGGGT | 2.5 ± 0.92
117 | AGGGTTAGTG | 0.979 ± 0.012
118 | TGTTAGGGAT | 1.01 ± 0.034
119 | GGGTTGAGGG | 1 ± 0.027
120 | GATCGGTGCT | 1 ± 0.015
121 | CTAAGGGATT | 1.01 ± 0.058
122 | ACCTATTAGA | 1.01 ± 0.022
123 | AGCGCGTCGC | 0.955 ± 0.016
124 | TTTTTCTCAG | 1.01 ± 0.031
125 | TTGTATGAGT | 0.986 ± 0.025

Row | Sequence | switch fluorescence ratio
126 | TACAGGTTTT | 0.972 ± 0.073
127 | GTTGGGGCAA | 1.03 ± 0.02
128 | TTCGGGTCCG | 0.988 ± 0.067
129 | TGAGATACGA | 1.0108 ± 0.0001
130 | GGAGCATTTG | 1.27 ± 0.039
131 | GAGTAGTGCT | 1.03 ± 0.018
132 | CATCGATGTT | 1.025 ± 0.0064
133 | GAGAAAGGTG | 1.09 ± 0.022
134 | AGTGGTTAGT | 1.05 ± 0.027
135 | ATGTAATATA | 1.02 ± 0.06
136 | GGGATATGGA | 1.04 ± 0.049
137 | ATCCGGTTAC | 5.17 ± 0.68
138 | TTGTATGTCT | 0.991 ± 0.044
139 | GAGTTCTTAG | 0.9587 ± 0.0011
140 | AAGCCTGGAG | 1.02 ± 0.026
141 | GGCTTTTAAC | 0.9827 ± 0.0013
142 | CTTCTGGGCG | 1.02 ± 0.032
143 | CGGGCGTCTC | 0.996 ± 0.022
144 | CGTTTACAAG | 0.985 ± 0.033
145 | CACCTAGGCT | 1.055 ± 0.0048
146 | TCAGCGAAAT | 0.99 ± 0.016
147 | AAGGGCCTTC | 1.025 ± 0.0071
148 | TTGGAAGGAC | 1.03 ± 0.013
149 | TTATGCTGGG | 0.974 ± 0.012
150 | GTATGGGCGG | 0.991 ± 0.035

Row | Sequence | switch fluorescence ratio
151 | AGGGAGAAGG | 1 ± 0.011
152 | ATCCTGCTTT | 1.01 ± 0.069
153 | ATAATAGGG | 0.9773 ± 0.0019
154 | GAGGTAGAGG | 0.986 ± 0.026
155 | TGCGGTTTAG | 1.04 ± 0.016
156 | ATGATAGAGG | 0.991 ± 0.025
157 | CCACTCTGGG | 0.9984 ± 0.0068
158 | AACATAGTCA | 1.006 ± 0.0024
159 | GGGAGGGGCA | 0.971 ± 0.012
160 | TCGGGGGCAC | 1.45 ± 0.71
161 | AGTTTGGTGG | 0.942 ± 0.067
162 | CATTTATGGG | 1.015 ± 0.0031
163 | AAAGGCGTCA | 1.01 ± 0.016
164 | CAGAGAATTT | 1.004 ± 0.0046
165 | ATTGGTAGTG | 0.997 ± 0.034
166 | AAGTTTCGGG | 0.987 ± 0.027
167 | TTGATCTCGG | 1.014 ± 0.0061
168 | ATTTTCTTTT | 1.06 ± 0.079
169 | AGTTGAATTT | 0.9885 ± 0.0016
170 | CAAAAGTGAT | 1.01 ± 0.024
171 | TGCCCTGCCT | 1.03 ± 0.024
172 | GGATTGAAGA | 0.969 ± 0.091
173 | AAGGTATGTT | 0.981 ± 0.021
174 | GGGTTGATGC | 1.02 ± 0.041
175 | ATGGCTTAGC | 0.983 ± 0.015

Row | Sequence | switch fluorescence ratio
176 | CAGATGCAGA | 1.065 ± 0.0071
177 | ATTTTGGAGA | 1.02 ± 0.026
178 | GACCAAATTT | 1.02 ± 0.064
179 | GGTGTGGAGG | 1.021 ± 0.0047
180 | GCGTGATTTG | 0.9959 ± 0.0045
181 | AGCGCCGAGT | 0.973 ± 0.045
182 | GTCAATTTGA | 0.978 ± 0.062
183 | GGTTTTCCAG | 0.946 ± 0.063
184 | ATGAAAATAC | 1.01 ± 0.03
185 | ATGGCTGTGG | 0.9852 ± 0.0085
186 | TGAGTGCAGC | 1.08 ± 0.12
187 | GGGAGGGAGC | 1.02 ± 0.06
188 | GGAACGTATT | 1.0119 ± 8.1e-05
189 | CAGTTCGTGT | 1.02 ± 0.022
190 | GGGATACGCT | 1.03 ± 0.054
191 | GACTGGTTGC | 1 ± 0.053
192 | GGGGGGTTTG | 1 ± 0.037
193 | CGTGGGGTTC | 0.983 ± 0.021
194 | TTTAGATTGG | 0.9945 ± 0.0086
195 | CGCTTAGATT | 0.997 ± 0.025
196 | CGGTAGGCGG | 0.971 ± 0.018
197 | GGATTATGGA | 0.971 ± 0.025
198 | TAGGCGGCGA | 1 ± 0.022
199 | ACCATTGTGA | 0.998 ± 0.014
200 | GGGGTTGTGG | 0.988 ± 0.032

Source: the supplement of paper PMC10126150
